Data: publication PMC5700101

B1: Luc-KD (KD–IDL of Polo, amino acids 1–349, N-terminally fused to RLucII), KD^WT [Drosophila] / PBD–GFP (PBD of Polo, amino acids 350–576, C-terminally fused to GFP10) [Drosophila] (parent)
chain 1: MAAKPEDKSTDIPDRLVDINQRKTYKRMRFFGKGGFAKCYEIIDVETDDVFAGKIVSKKLMIKHNQKEKTAQEITIHRSLNHPNIVKFHNYFEDSQNIYIVLELCKKRSMMELHKRRKSITEFECRYYIYQIIQGVKYLHDNRIIHRDLKLGNLFLNDLLHVKIGDFGLATRIEYEGERKKTLCGTPNYIAPEILTKKGHSFEVDIWSIGCVMYTLLVGQPPFETKTLKDTYSKIKKCEYRVPSYLRKPAADMVIAMLQPNPESRPAIGQLLNFEFLKGSKVPMFLPSSCLTMAPRIGSNDTIEDSMHRKPLMEMNGIRPDDTRLESTFLKANLHDAITASAQVCRHSE
chain 2: DYRSDIESLYQQLTNLINGKPRILQGNLGDENTDPAAQPLFWISKWVDYSDKYGFGYQLCDEGIGVMFNDTTKLILLPNQINVHFIDKDGKETYMTTTDYCKSLDKKMKLLSYFKRYMIEHLVKAGANNVNIESDQISRMPHLHSWFRTTCAVVMHLTNGSVQLNFSDHMKLILCPRMSAITYMDQEKNFRTYRFSTIVENGVSKDLYQKIRYAQEKLRKMLEKMFT

Variants of: B1
Assay: BRET
Settings: with PBD–GFP (PBD of Polo, amino acids 350–576, C-terminally fused to GFP10) [Drosophila]; live HEK293T cells; fixed amount of Luc-KD vector, increasing PBD–GFP vector; Map205 fragment co-transfected; p-value 0.0374; parent: 0.197

| Variant | screen value [GFP/Luc] |
| --- | --- |
| chain 1 MAAKPEDKSTDIPDRLVDINQRKTYKRMRFFGKGGFAKCYEIIDVETDDVFAGKIVSKKLMIKHNQKEKTAQEITIHRSLNHPNIVKFHNYFEDSQNIYIVLELCKKRSMMELHKRRKSITEFECRYYIYQIIQGVKYLHDNRIIHRDLKLGNLFLNDLLHVKIGDFGLATRIEYEGERKKDLCGTPNYIAPEILTKKGHSFEVDIWSIGCVMYTLLVGQPPFETKTLKDTYSKIKKCEYRVPSYLRKPAADMVIAMLQPNPESRPAIGQLLNFEFLKGSKVPMFLPSSCLTMAPRIGSNDTIEDSMHRKPLMEMNGIRPDDTRLESTFLKANLHDAITASAQVCRHSE [chain 1 T182D] | 0.412 |

Same assay, conditions: with PBD–GFP (PBD of Polo, amino acids 350–576, C-terminally fused to GFP10) [Drosophila]; live HEK293T cells; fixed amount of Luc-KD vector, increasing PBD–GFP vector; Map205 fragment co-transfected; p-value 0.4037; parent: 0.197

| Variant | screen value [GFP/Luc] |
| --- | --- |
| chain 1 MAAKPEDKSTDIPDRLVDINQRKTYKRMRFFGKGGFAKCYEIIDVETDDVFAGKIVSKKLMIKHNQKEKTAQEITIHRSLNHPNIVKFHNYFEDSQNIYIVLELCKKRSMMELHKRRKSITEFECRYYIYQIIQGVKYLHDNRIIHRDLKLGNLFLNDLLHVKIGDFGLATRIEYEGERKKALCGTPNYIAPEILTKKGHSFEVDIWSIGCVMYTLLVGQPPFETKTLKDTYSKIKKCEYRVPSYLRKPAADMVIAMLQPNPESRPAIGQLLNFEFLKGSKVPMFLPSSCLTMAPRIGSNDTIEDSMHRKPLMEMNGIRPDDTRLESTFLKANLHDAITASAQVCRHSE [chain 1 T182A] | 0.148 |
